According to patent US7939490:

Biological target: Fn14-Fc fusion protein (murine Fn14 extracellular domain fused to the hinge and Fc of mouse IgG1, with myc and His tags) (murine)
Assay: ELISA, plate coated with Fn14-Fc, serial dilutions of FLAG-tagged TWEAK

Sequence of Fn14-Fc fusion protein (murine Fn14 extracellular domain fused to the hinge and Fc of mouse IgG1, with myc and His tags) (murine) (chain, as listed by the source): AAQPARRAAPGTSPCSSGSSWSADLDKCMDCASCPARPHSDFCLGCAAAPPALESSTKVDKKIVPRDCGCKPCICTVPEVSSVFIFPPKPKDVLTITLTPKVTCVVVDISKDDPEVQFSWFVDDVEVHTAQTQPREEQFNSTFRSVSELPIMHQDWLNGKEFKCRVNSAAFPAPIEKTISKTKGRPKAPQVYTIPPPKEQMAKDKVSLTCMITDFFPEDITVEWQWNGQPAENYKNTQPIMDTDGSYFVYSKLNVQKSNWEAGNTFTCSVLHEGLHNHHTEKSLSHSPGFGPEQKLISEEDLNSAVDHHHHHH

For FLAG epitope-tagged TWEAK (ligand), the Kd was 1.1 nM.
